Laboratory results: IntAct's records for PubMed 16488394

B1: Actin nucleation-promoting factor WAS (Homo sapiens), P42768 (parent)
chain: MSGGPMGGRPGGRGAPAVQQNIPSTLLQDHENQRLFEMLGRKCLTLATAVVQLYLALPPGAEHWTKEHCGAVCFVKDNPQKSYFIRLYGLQAGRLLWEQELYSQLVYSTPTPFFHTFAGDDCQAGLNFADEDEAQAFRALVQEKIQKRNQRQSGDRRQLPPPPTPANEERRGGLPPLPLHPGGDQGGPPVGPLSLGLATVDIQNPDITSSRYRGLPAPGPSPADKKRSGKKKISKADIGAPSGFKHVSHVGWDPQNGFDVNNLDPDLRSLFSRAGISEAQLTDAETSKLIYDFIEDQGGLEAVRQEMRRQEPLPPPPPPSRGGNQLPRPPIVGGNKGRSGPLPPVPLGIAPPPPTPRGPPPPGRGGPPPPPPPATGRSGPLPPPPPGAGGPPMPPPPPPPPPPPSSGNGPAPPPLPPALVPAGGLAPGGGRGALLDQIRQGIQLNKTPGAPESSALQPPPQSSEGLVGALMHVMQKRSRAIHSSDEGEDQAGDEDEDDEWDD

Variants of: B1
Details: with wipf1_human WIPF1, O43516
Chain of wipf1_human WIPF1, O43516 (O43516 whole entry): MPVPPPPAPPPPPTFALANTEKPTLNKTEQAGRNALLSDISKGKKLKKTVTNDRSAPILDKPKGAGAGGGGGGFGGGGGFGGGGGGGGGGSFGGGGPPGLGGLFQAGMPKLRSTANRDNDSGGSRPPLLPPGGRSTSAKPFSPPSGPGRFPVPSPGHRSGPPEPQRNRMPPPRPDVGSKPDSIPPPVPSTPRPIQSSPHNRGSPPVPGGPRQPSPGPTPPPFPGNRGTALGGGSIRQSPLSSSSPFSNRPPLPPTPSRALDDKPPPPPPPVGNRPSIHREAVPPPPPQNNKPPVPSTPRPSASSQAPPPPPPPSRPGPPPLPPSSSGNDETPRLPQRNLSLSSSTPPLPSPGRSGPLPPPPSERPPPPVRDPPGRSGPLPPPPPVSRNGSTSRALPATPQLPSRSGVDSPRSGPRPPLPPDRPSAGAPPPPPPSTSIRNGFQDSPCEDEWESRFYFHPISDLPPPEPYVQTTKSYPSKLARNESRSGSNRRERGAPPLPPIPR

Row | effect of a mutation on the interaction | Variant
1 | decreasing interaction | A134T
